Experimental data: patent US20230348614A1 (VISTERRA, published 2023)

Columns and labels:
S151A (Homo sapiens) = S151A (Homo sapiens) (UniProt P18827); experiment: alanine scan: flow cytometry on HEK-293T cells expressing the mutant clone, 4320 Fab 0.50 ug/mL, normalised to WT CD138; Range %WT Binding 6; Normalized 4320 vs. BB4 24.5
A168S = molecular target: T1, A168S (Homo sapiens, UniProt P18827); experiment: alanine scan: flow cytometry on HEK-293T cells expressing the mutant clone, 4320 Fab 0.50 ug/mL, normalised to WT CD138; Range %WT Binding 3; Normalized 4320 vs. BB4 57.9
T1 construct: clone of the alanine scanning library on HEK-293T cells; m17 with one substitution (alanine changed to serine); also called CD138 A168S
T1 sequence (CD138 (SDC1), full length, point mutant, looked up): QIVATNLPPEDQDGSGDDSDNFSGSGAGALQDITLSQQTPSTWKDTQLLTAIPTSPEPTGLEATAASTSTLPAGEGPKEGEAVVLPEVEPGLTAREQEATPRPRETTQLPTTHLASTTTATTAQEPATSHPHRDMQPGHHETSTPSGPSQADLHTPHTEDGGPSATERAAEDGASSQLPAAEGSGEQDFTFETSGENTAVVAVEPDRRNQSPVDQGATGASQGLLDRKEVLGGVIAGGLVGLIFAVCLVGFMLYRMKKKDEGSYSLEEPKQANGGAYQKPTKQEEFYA
Experimental: (§1) Serial dilutions of each MAb were tested for immunoreactivity against cells expressing target protein (WT) or vector alone. Validation of target expression and optimization of detection and binding of anti-CD138 antibodies both by flow cytometry was completed in replicate (N=4). The optimal screening concentration for each MAb was determined based on the raw signal values and signal-to-background calculations specifically optimized for each test article. Optimized parameters included the use of 10% goat serum as blocking reagent. Primary antibody staining was for 60 minutes at 25° C. Wash buffer include phosphate buffered saline (divalent metal ion free), pH 7.4. […] Secondary antibodies were diluted 1:400 and incubated for 30 minutes at 25° C.
(§2) Library screens of very-high-affinity mAbs can fail to yield critical residues for antibody binding due to deficiencies of such an assay to detect and differentiate critical vs. less critical binding based on affinity and quantification of cell binding. One common approach in the literature is the use of monovalent antibody derived fragments such as Fab usually weakens binding sufficiently to allow identification of critical residues for binding. […] Binding of each test Ab to each mutant clone in the alanine scanning library was determined, in duplicate, and likewise evaluated by flow cytometry.

E111A = molecular target: T2, E111A (Homo sapiens, UniProt P18827); experiment: alanine scan: flow cytometry on HEK-293T cells expressing the mutant clone, 4320 Fab 0.50 ug/mL, normalised to WT CD138; Range %WT Binding 8; Normalized 4320 vs. BB4 10.4
T2 construct: clone of the alanine scanning library on HEK-293T cells; m17 with one substitution; also called CD138 E111A
T2 sequence (CD138 (SDC1), full length, point mutant, looked up): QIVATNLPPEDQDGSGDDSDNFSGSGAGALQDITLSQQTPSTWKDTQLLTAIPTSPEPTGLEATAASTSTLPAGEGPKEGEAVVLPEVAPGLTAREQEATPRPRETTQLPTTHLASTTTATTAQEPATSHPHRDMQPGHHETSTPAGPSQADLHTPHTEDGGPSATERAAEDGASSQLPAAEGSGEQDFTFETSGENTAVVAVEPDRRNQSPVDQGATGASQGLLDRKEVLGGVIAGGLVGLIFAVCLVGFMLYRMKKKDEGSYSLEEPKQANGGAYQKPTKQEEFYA
Experimental: as §1, §2

L114A = molecular target: T3, L114A (Homo sapiens, UniProt P18827); experiment: alanine scan: flow cytometry on HEK-293T cells expressing the mutant clone, 4320 Fab 0.50 ug/mL, normalised to WT CD138; Range %WT Binding 15; Normalized 4320 vs. BB4 30.8
T3 construct: clone of the alanine scanning library on HEK-293T cells; m17 with one substitution; also called CD138 L114A
T3 sequence (CD138 (SDC1), full length, point mutant, looked up): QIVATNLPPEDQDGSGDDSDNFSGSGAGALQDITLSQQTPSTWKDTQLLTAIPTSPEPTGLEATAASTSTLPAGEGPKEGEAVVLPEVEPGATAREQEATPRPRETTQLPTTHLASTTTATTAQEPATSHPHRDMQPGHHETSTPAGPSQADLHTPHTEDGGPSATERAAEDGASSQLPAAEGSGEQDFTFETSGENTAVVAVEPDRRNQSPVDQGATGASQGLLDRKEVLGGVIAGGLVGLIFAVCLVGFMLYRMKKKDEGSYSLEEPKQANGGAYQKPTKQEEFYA
Experimental: as §1, §2

D210A = molecular target: T4, D210A (Homo sapiens, UniProt P18827); experiment: alanine scan: flow cytometry on HEK-293T cells expressing the mutant clone, 4320 Fab 0.50 ug/mL, normalised to WT CD138; Range %WT Binding 15; Normalized 4320 vs. BB4 56.7
T4 construct: clone of the alanine scanning library on HEK-293T cells; m17 with one substitution; also called CD138 D210A
T4 sequence (CD138 (SDC1), full length, point mutant, looked up): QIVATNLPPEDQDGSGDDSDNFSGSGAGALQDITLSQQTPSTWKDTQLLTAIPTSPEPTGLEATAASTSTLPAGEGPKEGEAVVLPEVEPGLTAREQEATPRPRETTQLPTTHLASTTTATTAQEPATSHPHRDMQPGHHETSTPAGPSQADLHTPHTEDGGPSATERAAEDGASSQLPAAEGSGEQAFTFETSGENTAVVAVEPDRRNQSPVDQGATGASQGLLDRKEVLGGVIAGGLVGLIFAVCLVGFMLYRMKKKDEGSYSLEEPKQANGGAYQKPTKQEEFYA
Experimental: as §1, §2

G160A = molecular target: T5, G160A (Homo sapiens, UniProt P18827); experiment: alanine scan: flow cytometry on HEK-293T cells expressing the mutant clone, 4320 Fab 0.50 ug/mL, normalised to WT CD138; Range %WT Binding 24; Normalized 4320 vs. BB4 60.2
T5 construct: clone of the alanine scanning library on HEK-293T cells; m17 with one substitution; also called CD138 G160A
T5 sequence (CD138 (SDC1), full length, point mutant, looked up): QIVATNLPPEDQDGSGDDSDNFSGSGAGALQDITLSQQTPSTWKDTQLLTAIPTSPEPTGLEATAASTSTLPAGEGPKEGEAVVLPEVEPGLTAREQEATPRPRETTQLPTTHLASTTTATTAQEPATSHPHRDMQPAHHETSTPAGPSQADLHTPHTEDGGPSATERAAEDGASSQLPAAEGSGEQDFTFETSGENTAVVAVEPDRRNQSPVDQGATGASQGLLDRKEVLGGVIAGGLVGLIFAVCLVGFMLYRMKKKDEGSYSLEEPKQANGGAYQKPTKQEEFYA
Experimental: as §1, §2

- Mean %WT Binding (S151A (Homo sapiens)): 8.9 %WT
- Mean %WT Binding (A168S): 44.9 %WT
- Mean %WT Binding (E111A): 13 %WT
- Mean %WT Binding (L114A): 36.2 %WT
- Mean %WT Binding (D210A): 42.7 %WT
- Mean %WT Binding (G160A): 59.7 %WT
B1: Fab fragment of mAb 4320 (Fab, V domains shown)
VH: QVQLVQSGAEVKKPGASVKVSCKASGYSFSSYYMHWVRQAPGQGLEWMGTIHPSDSTTNYNQKFQGRVTMTVDTSTRTAYMELSSLRSEDTAVYYCANFVYWGQGTTVTVSS
VL: DIVMTQTPLSLSVTPGQPASISCKSSKSLLYKDGKTYLNWFLQKPGQSPQLLIYVVSTRASGVPDRFSGSGSGTDFTLKISRVEAEDVGVYYCQQLVEYPYTFGQGTKLEIKR
modifications: N-terminal Q1 observed as pyroglutamic acid (PCA) in the 138-2-5 complex
notes: In the crystal structures heavy chain residues 1-213 were traced; also called Fab4320
